In this data set the test system is MS2 coat protein. The data set is described as follows: apparent KD of MS2 coat protein; designed switch direction (-1 OFF switch, 1 ON switch): -1; higher = weaker reporter binding. Put shortly: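 Apparent KD, taken as the median over clusters for each design, was obtained by curve-fitting normalised cluster fluorescence. Designed RNA switches had been transcribed on Illumina chips by stalled E. coli RNA polymerase and titrated with SNAP-549-labelled MS2 coat protein, doubling from 0.7 or 1.5 nM to 3 µM.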

Setting [1] is: input ligand: microRNA oligo, concentration not stated.
The mark [2] stands for this setting: Eterna round: R95, input ligand: microRNA oligo, concentration not stated.

For “AUUCCUCCUGUUAGGAUAUGCAUCGGGCUUCCGCAGCAGAAGGAACAUGAGGAUCACCCAUGUCAAAUAAAAUC (Eterna round: R97, puzzle: Brourd's mod of Exclusion 4)”, the “apparent KD of MS2 coat protein” value stood at 231 nM (input ligand: FMN 200 uM) and 30.2 nM (input ligand: none).

In the case of “AUUGAUAGCACAGGAUAUUGAGAUUUGAAUUGACAAGAAGGGUGUACAUGAGGAUCACCCAUGUAAUGGGAGAGUGGUUGAUUA [JR_ExcNG1_Sub002] (Eterna round: R96, puzzle: Exclusion NG 1)”, the “apparent KD of MS2 coat protein” value stood at 365 nM (input ligand: FMN 200 uM), 324 nM under setting [1] and 582 nM (input ligand: none).

Consider “AUUGUAGUUGUGAGGAUAUCGUUGAUUUUUUGAAACGAGAAGGCACAUGAGGAUCACCCAUGUAAGUUGUAGGU [JR_BMOE4_Sub055] (puzzle: Brourd's mod of Exclusion 4)”, for which, under setting [2], the “apparent KD of MS2 coat protein” value stood at 77.6 nM.

In the case of “AUUGUAUGAUACCUCUAAUACAUGAGGAUCACCCAUGUUAUCGAGGAUAUGCAGAAUAGAUUAGAGCAGAAGGCGAAGUAAUAU [JR_ExcNG3_Sub025] (Eterna round: R96, puzzle: Exclusion NG 3)”, the “apparent KD of MS2 coat protein” value (input ligand: FMN 200 uM) was 15 nM, the “apparent KD of MS2 coat protein” value under setting [1] was 9.08 nM and the “apparent KD of MS2 coat protein” value (input ligand: none) turned out to be 13.6 nM.

“AUUGUUUAUGUAGGAUAUGCCUGGCGUGCCUUCGCAGAAGGACAUGAGGAUCACCCAUGUAUUGCGGUCUGCGUUCAGAUCGCU [salish99_ExNG1_r4_025] (Eterna round: R96, puzzle: Exclusion NG 1)”: the “apparent KD of MS2 coat protein” value was 75 nM (input ligand: FMN 200 uM), 30.6 nM under setting [1] and 55.4 nM (input ligand: none).

For “AUUGUUUAUGUAGGAUAUGCCUGGCGUGCCUUUGCAGAAGGACAUGAGGAUCACCCAUGUAACAUGAGGCUCACCCAUGUCGCA [salish99_ExNG1_r04_113] (Eterna round: R96, puzzle: Exclusion NG 1)”, the “apparent KD of MS2 coat protein” value is 481 nM (input ligand: FMN 200 uM), 255 nM under setting [1] and 429 nM (input ligand: none).

For the sequence “AUUUAAUUUAGCGAGAUCACAUGAGGAUCACCCAUGUAUAUAUAGGAUAUCAGCUCGUGUAGAGCUGAGAAGGAUAUAUACCGC [ExNG3/7-A3] (Eterna round: R96, puzzle: Exclusion NG 3)”, the “apparent KD of MS2 coat protein” value was found to be 108 nM (input ligand: FMN 200 uM), 72.5 nM under setting [1] and 88.1 nM (input ligand: none).

With “AUUUAGUCAGGAUAUACAUGAGGAUCACCCAUGUAAACUUUUAGUUUAAUUUGAAUGUGUAGAAGGGACAUUUA [Ex3 #46] (Eterna round: R97, puzzle: Exclusion 3)”, the “apparent KD of MS2 coat protein” value turned out to be 26 nM (input ligand: FMN 200 uM) and 28 nM (input ligand: none).

Regarding “AUUUAGUGAGGAUAUGUGGCUUCGAUCGUGAGAUCGAGGCUACAGAAGGCACAUGAGGAUCACCCAUGUUCCUG [salish99_ex4_r4_113] (Eterna round: R97, puzzle: Exclusion 4)”, the “apparent KD of MS2 coat protein” value is, setting by setting: (input ligand: FMN 200 uM) 75.7 nM; (input ligand: none) 17.5 nM.

Turning to “AUUUUAUUCUGAGGAUAUUGAUUAAUCCUCUCACAUGAGGAUCACCCAUGUUUCCGUGUUUACCGCAAGAAGGCAGUUUUGUAU [JR_ExcNG2_Sub025] (Eterna round: R96, puzzle: Exclusion NG 2)”, the “apparent KD of MS2 coat protein” value (input ligand: FMN 200 uM) came to 41.4 nM, the “apparent KD of MS2 coat protein” value under setting [1] was determined as 35.2 nM and the “apparent KD of MS2 coat protein” value (input ligand: none) was found to be 41 nM.

As to “AUUUUGUCAGGAUAUGAGUAGUAGGACGAAAGUGUUAUUAUUUAGAAGGGACAUGAGGAUCACCCAUGUUCCUC [Bring Us a Shrubbery-03] (Eterna round: R96, puzzle: Exclusion 4)”, the “apparent KD of MS2 coat protein” value stood at 13.9 nM (input ligand: FMN 200 uM), 10.7 nM under setting [1] and 13.7 nM (input ligand: none).

On to “AUUUUGUCAGGAUAUGAGUAGUAGGACGAAAGUGUUAUUAUUUAGAAGGGACAUGAGGAUCACCCAUGUUCCUC [Bring Us a Shrubbery-03] (puzzle: Exclusion 4)”, for which, under setting [2], the “apparent KD of MS2 coat protein” value was 12.1 nM.

As for “AUUUUGUCAGGAUAUGAUUAGUAGGACGAGAGUGCUACUACUUAGAAGGGACAUGAGGAUCACCCAUGUAUUCC [Bring Us a Shrubbery-08] (puzzle: Exclusion 4)”, under setting [2], the “apparent KD of MS2 coat protein” value was determined as 15 nM.

Consider “CAAAAGCUAGGAUAUACAUGAGGAUCACCCAUGUAUAGGUGGGCAGUUCUUAUCAAACGUAGAAGGAGCAUAAA [Uslaisan] (puzzle: Exclusion 3)”, for which the “apparent KD of MS2 coat protein” value is, setting by setting: (Eterna round: R95, input ligand: FMN 200 uM) 39.2 nM; under setting [2], 17.5 nM; (Eterna round: R95, input ligand: none) 16.6 nM.

For the sequence “CAACAACGAGGAUAUACAUGAGGAUCACCCAUGUAAGAAAAGACAUAAACCGCCUGGUGUAGAAGGCGUAAAAC [Xeonesar] (Eterna round: R97, puzzle: Exclusion 3)”, the “apparent KD of MS2 coat protein” value is, setting by setting: (input ligand: FMN 200 uM) 25.2 nM; (input ligand: none) 38.2 nM.

Regarding “CAACCACAUGAGGAUCACCCAUGUGAGGAUAUGAUACUAUGUACUUCGGUACAUAGUAUCAGAAGGCACAGGUG [Ex1-3: 60] (puzzle: Exclusion 1)”, the “apparent KD of MS2 coat protein” value under setting [2] amounted to 83.2 nM.

Turning to “CAACCUCACAACCGUUAAAACAUGAGGAUCACCCAUGUGCCAUAACGGCGCAUGAUCGAGCUAGGCCCGUCCAUGCA [Razaxe] (Eterna round: R96, puzzle: Sensor v2, turn-off variant)”, the “apparent KD of MS2 coat protein” value worked out at 23.2 nM (input ligand: FMN 200 uM), 18.8 nM under setting [1] and 26.1 nM (input ligand: none).

Take “CAACUGUGAGGAUAUGGUGAGUAGUGCCUGAGCGCUGCUCACCAGAAGGCACAUGAGGAUCACCCAUGUAUAAC [Mat - Exclusion 4 - Mod of JL - D4] (puzzle: Exclusion 4)”: the “apparent KD of MS2 coat protein” value under setting [2] worked out at 35.6 nM.

For “CAAGAUUACUGAGGAUAUCCUAGUUUAUCUCAGGGAGAAGGCGGACUCAACAUGAGGAUCACCCAUGUAAGACGGGUACUAGAG [Ex NG1 #15] (Eterna round: R96, puzzle: Exclusion NG 1)”, the “apparent KD of MS2 coat protein” value (input ligand: FMN 200 uM) stood at 84.8 nM, the “apparent KD of MS2 coat protein” value under setting [1] amounted to 68.4 nM and the “apparent KD of MS2 coat protein” value (input ligand: none) amounted to 43.2 nM.

As for “CAAGCUUUUCCAUUUCUAUACAUGAGGAUCACCCAUGUCCCGAGUUGGGUGAGCACUCUGGUCGUCGUUUCUACCAA [Envele] (Eterna round: R96, puzzle: Sensor v2, turn-off variant)”, the “apparent KD of MS2 coat protein” value reads like this: (input ligand: FMN 200 uM) 432 nM; under setting [1], 181 nM; (input ligand: none) 278 nM.

For the sequence “CAAUACAAGCGAAGAUCCUACAUGAGGAUCACCCAUGUGCUCGUCUUAAAAGGUACUGUGACGAAAGUCACGGUACC [Eli 87 + Mat D67 4] (Eterna round: R97, puzzle: Sensor, turn-off variant 1)”, the “apparent KD of MS2 coat protein” value is, setting by setting: (input ligand: FMN 200 uM) 282 nM; (input ligand: none) 296 nM.

Turning to “CAAUAUUAUCGAGGAUAUCCUAUUGUAUUUCAGGGAGAAGGCGGACUCAACAUGAGGAUCACCCAUGUAAGACGGGUACUAGAU [Ex NG1 #19] (Eterna round: R96, puzzle: Exclusion NG 1)”, the “apparent KD of MS2 coat protein” value runs as follows: (input ligand: FMN 200 uM) 92.2 nM; under setting [1], 69.8 nM; (input ligand: none) 89.7 nM.

For “CACCAGAGAGGAUAUGCACUCAUGGCACCGAAAGGGAGGCGACAUGAGGAUCACCCAUGUAGAAGGCUCAGCAG [Eternabot (Original) Solution 16] (Eterna round: R97, puzzle: Exclusion 2)”, the “apparent KD of MS2 coat protein” value reads like this: (input ligand: FMN 200 uM) 153 nM; (input ligand: none) 70.6 nM.

Turning to “CACCGUUACAUAGGAUAUGUUACAUGAGGAUCACCCAUGUAAUAAAUGAGAAUUUCGAAUGUAAUACAGAAGGAUGGAAUCGGC [Ostracism 71 - Jieux - Exclusion NG 2] (Eterna round: R96, puzzle: Exclusion NG 2)”, the “apparent KD of MS2 coat protein” value by setting is: (input ligand: FMN 200 uM) 28.7 nM; under setting [1], 16.6 nM; (input ligand: none) 17.7 nM.

On to “CACGUACAGCAAGGAUAUCCAAAUGUUGAGCAUGGCCUAUCCAUACAUGAGGAUCACCCAUGUUCGGAGAAGGUGCAUGUAUCU [Enteinte] (Eterna round: R96, puzzle: Exclusion NG 2)”, for which the “apparent KD of MS2 coat protein” value (input ligand: FMN 200 uM) came out at 11.2 nM, the “apparent KD of MS2 coat protein” value under setting [1] came out at 9.96 nM and the “apparent KD of MS2 coat protein” value (input ligand: none) was 12.8 nM.

In the case of “CACUGCAGGUUAGGAUAUGGACAACAACAUGAGGAUCACCCAUGUAUGUAUGAACAUGUUGAUCACCAGAAGGAACACAUCAGU [Exclusion NG 2 S2] (Eterna round: R96, puzzle: Exclusion NG 2)”, the “apparent KD of MS2 coat protein” value reads like this: (input ligand: FMN 200 uM) 12.2 nM; under setting [1], 9.35 nM; (input ligand: none) 11.8 nM.

With “CAGAAGUGAGGAUAUAUAUGUAAGUUUGAUCCAACAAGUAUACAUGAGGAUCACCCAUGUAGAAGGUGCUUCCC [Eternabot (L2) Solution 45] (Eterna round: R97, puzzle: Exclusion 2)”, the “apparent KD of MS2 coat protein” value reads like this: (input ligand: FMN 200 uM) 57.2 nM; (input ligand: none) 44.6 nM.

Regarding “CAGCUGAAAGUGAGGAUAUCGACUGCCUCGGCAGUCGAGAAGGCACAUGAGGAUCACCCAUGUCUCAACAGCUG [BmEx4/1-A5] (Eterna round: R97, puzzle: Brourd's mod of Exclusion 4)”, the “apparent KD of MS2 coat protein” value came to 81.4 nM (input ligand: FMN 200 uM) and 23 nM (input ligand: none).

As for “CAGCUGUCAGGAUAUCGUGCAUACAACGAAAGUUCUAUGUGCGAGAAGGGACAUGAGGAUCACCCAUGUUUACG [Omei Ex4 A24] (Eterna round: R97, puzzle: Exclusion 4)”, the “apparent KD of MS2 coat protein” value is, setting by setting: (input ligand: FMN 200 uM) 48 nM; (input ligand: none) 28.6 nM.

Take “CAGGAUAGAGGAUAUACAUAGAUACAGAUUCAUAUAAUCCUACAUGAGGAUCACCCAUGUAGAAGGCUAUCCUG [Fiskers Ex 2 - 25] (puzzle: Exclusion 2)”: under setting [2], the “apparent KD of MS2 coat protein” value came to 14.5 nM.

The values above are taken from the supplement of paper PMC9170038.
